Data as given in the supplement of paper PMC7125110.
± gives the standard error. This sample holds only a part of the variants without activity.

B1: glmS ribozyme (parent)
chain: AUAAAAGCGCCAGAACUACAGAAAUGUAGUUGACGAGGAGGAGGUUUAUCGAAUUUUCGGCGGAUGCCUCCAAA

Experiments:
Settings in all cases: with glucosamine-6-phosphate
glucosamine-6-phosphate [1] = variants of: B1; experiment: self-cleavage kobs at 40 uM GlcN6P; higher = faster cleavage; RNA array
Method in brief: (§1)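 Weighted Michaelis–Menten fits across concentrations supplied kcat and KM, based on kobs from one- or two-exponential decay fits to normalised per-tile medians. The data came from barcoded ribozyme variants transcribed in situ by E. coli RNA polymerase on sequenced MiSeq chips and tracked at 37 °C by a hybridised Cy3 probe. Glucosamine-6-phosphate (40 μM to 10 mM) in HEPES/KCl/Mg(OAc)2 buffer was flowed in.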

glucosamine-6-phosphate [2] = variants of: B1; experiment: self-cleavage kobs at 10000 uM GlcN6P; higher = faster cleavage; RNA array
Method in brief: as §1

glucosamine-6-phosphate [3] = variants of: B1; experiment: self-cleavage kobs at 160 uM GlcN6P; higher = faster cleavage; RNA array
Method in brief: as §1

glucosamine-6-phosphate [4] = variants of: B1; experiment: self-cleavage kobs at 640 uM GlcN6P; higher = faster cleavage; RNA array
Method in brief: as §1

glucosamine-6-phosphate [5] = variants of: B1; experiment: self-cleavage kobs at 2500 uM GlcN6P; higher = faster cleavage; RNA array
Method in brief: as §1

Variant	self-cleavage kobs at 40 uM GlcN6P (glucosamine-6-phosphate [1])	self-cleavage kobs at 10000 uM GlcN6P (glucosamine-6-phosphate [2])	self-cleavage kobs at 160 uM GlcN6P (glucosamine-6-phosphate [3])	self-cleavage kobs at 640 uM GlcN6P (glucosamine-6-phosphate [4])	self-cleavage kobs at 2500 uM GlcN6P (glucosamine-6-phosphate [5])
AUAAAAGCGCCAGAAUUACAGAAAUGUAGUUGUCGAGGAGGAGGUUUAUGGAAUUUUCGGCGGUUGCCACCAAA [C16U A33U C50G A64U U69A]	0.000139 ± 2.3e-05 s⁻¹	0.000172 ± 3.4e-05 s⁻¹			
AUAAAAGGGCCAGAACUACAGAAAUGUAGUUGACGAGGAGGAGGUAUAUCGAAUUUUCGGCGGAUGCCUGCAAA [C8G U46A C70G]	< 1e-05 s⁻¹				
AUAAAAGCGCCCGAACUACAGAAAUGUAGUUGACGAGGAGGAGGGUUAUCGAAUUUUCGGCGGAUGCCUCCAAA [A12C U45G]	0.000128 ± 4.1e-05 s⁻¹	0.012 ± 0.004 s⁻¹			
AUAAAAGAGCCAGAACUACAGAAAUGUAGUUGACGGGGAGGAGGUUUAUCGAAUUUUCGGCGGAUGCCUCCAAA [C8A A36G]	< 1e-05 s⁻¹	< 1e-05 s⁻¹	< 1e-05 s⁻¹	< 1e-05 s⁻¹	< 1e-05 s⁻¹
AUAAAAGCGGGAGAACUACAGAAAUGUAGUUGACGAGGAGGAGGUUUAUCGAAUUUUCGGCGCAUGCCUCCAAA [C10G C11G G63C]	< 1e-05 s⁻¹	< 1e-05 s⁻¹			
AUAAAAGCGCCAGAACUACAGAAAUGUAGUUGACGAGGAGGAGGUUAAUCGAACUUUCGGCGGAUGCCUCUAAA [U47A U54C C71U]	0.000577 ± 0.00018 s⁻¹	0.0135 ± 0.0039 s⁻¹			
AUAAAAGCGCCAGAACUACAGAAAUGUAGUUGAGGAGGAGGAGGUUGAUCGAAUUUUCGGCGGAUGCGUCCAAA [C34G U47G C68G]	0.000102 ± 2.7e-05 s⁻¹	7.34e-05 ± 1.5e-05 s⁻¹	0.000631 ± 0.00031 s⁻¹	8.76e-05 ± 2.5e-05 s⁻¹	7.01e-05 ± 2.4e-05 s⁻¹
AUAAAAUCGCCAGAACUACAGAAAUGUAGUUGACCAGGAGGAGGUUUAUCGAAUGUUCGGCGGCUGCCUCCAAA [G7U G35C U55G A64C]	< 1e-05 s⁻¹				
AUAAAAGCGGCAGAACUACAGAAAUGUAGUUGACGAGGAAGAGGUUUAUCGAAUUUUCGGCGGAUGCCUCCAAA [C10G G40A]	< 1e-05 s⁻¹	< 1e-05 s⁻¹		< 1e-05 s⁻¹	< 1e-05 s⁻¹
AUAAAAGCGCCAGAACUACAGAAAUGUAAUUGAAGAGGAUCAGUUUUAGAGAAUUUUCGGCGGAUGCCUCUAAA [G29A C34A G40U G41C G44U U49G C50A C71U]	< 1e-05 s⁻¹	< 1e-05 s⁻¹			
AUAAAAGCGCCAGAACUACAGAAAUGUAGUUGACGUGGAGGAGCUUGAUCGAAUUUUCGGCGGAUGCCUCCAAA [A36U G44C U47G]	< 1e-05 s⁻¹	< 1e-05 s⁻¹			
AUAAAAUUGCCAGAACUACAGAAAUGUAGUUGACGAGGAGGAGGUUUAUCGAAUUUUCGGCGGAUGUCUCCAAA [G7U C8U C67U]	< 1e-05 s⁻¹				
AUAAAAGCGCCAGAACUACAGAAAUGUAGUUGACGAGGAUGAGGUUUAUCGCAUUUUCGGCGGAUGCCUCCAAA [G40U A52C]	< 1e-05 s⁻¹		< 1e-05 s⁻¹		
AUAAAAGCGCCAGAACUACAGAAAUGUAGUUGACGAGGAAGAGGUUUAUCGAAAUUUCGGCGGAUGCCUCCAAA [G40A U54A]	0.000696 ± 0.00017 s⁻¹			0.000502 ± 0.00015 s⁻¹	0.00212 ± 0.00077 s⁻¹
AUAAAAGCGCCAGAACUACAGAAAUGUAGUUGACGAGGAGGAUGUUUAUCGAAUUUUCGGUGGAUGCUUCCAAA [G43U C61U C68U]	< 1e-05 s⁻¹	< 1e-05 s⁻¹		< 1e-05 s⁻¹	
